{
  "source": "patent US20040248202A1",
  "about": "(WISCONSIN ALUMNI RESEARCH FOUNDATION, published 2004)",
  "binders": {"B1": {"name": "bacteriorhodopsin (other)", "chain": "QAQITGRPEWIWLALGTALMGLGTLYFLVKGMGVSDPDAKKFYAITTLVPAIAFTMYLSMLLGYGLTMVPFGGEQNPIYWARYADWLFTTPLLLLDLALLVDADQGTILALVGADGIMIGTGLVGALTKVYSYRFVWWAISTAAMLYILYVLFFGFTSKAESMRPEVASTFKVLRNVTVVLWSAYPVVWLIGSEGAGIVPLNIETLLFMVLDVSAKVGFGLILLRSRAIFGEAEAPEPSAGDGAAATSD"}, "B2": {"name": "BR-Rhodopsin loop 3 chimera, Rhodopsin Insert Q225 to T251 (3D) (other)", "chain": "QAQITGRPEWIWLALGTALMGLGTLYFLVKGMGVSDPDAKKFYAITTLVPAIAFTMYLSMLLGYGLTMVPFGGEQNPIYWARYADWLFTTPLLLLDLALLVDADQGTILALVGADGIMIGTGLVGALTKVYSYRFVWWAISTAAMLYILYVLFFGFTQLVFTVKEAAAQQQESATTQKAEKEVTVASTFKVLRNVTVVLWSAYPVVWLIGSEGAGIVPLNIETLLFMVLDVSAKVGFGLILLRSRAIFGEAEAPEPSAGDGAAATSD"}, "B3": {"name": "BR-Rhodopsin loop 3 chimera, Rhodopsin Insert Q225 to R252 (3H) (other)", "chain": "QAQITGRPEWIWLALGTALMGLGTLYFLVKGMGVSDPDAKKFYAITTLVPAIAFTMYLSMLLGYGLTMVPFGGEQNPIYWARYADWLFTTPLLLLDLALLVDADQGTILALVGADGIMIGTGLVGALTKVYSYRFVWWAISTAAMLYILYVLFFGFTQLVFTVKEAAAQQQESATTQKAEKEVTRVASTFKVLRNVTVVLWSAYPVVWLIGSEGAGIVPLNIETLLFMVLDVSAKVGFGLILLRSRAIFGEAEAPEPSAGDGAAATSD"}, "B4": {"name": "BR-Rhodopsin loop 3 chimera, Rhodopsin Insert Y223 to M253 (3C) (other)", "chain": "QAQITGRPEWIWLALGTALMGLGTLYFLVKGMGVSDPDAKKFYAITTLVPAIAFTMYLSMLLGYGLTMVPFGGEQNPIYWARYADWLFTTPLLLLDLALLVDADQGTILALVGADGIMIGTGLVGALTKVYSYRFVWWAISTAAMLYILYVLFFGFTYGQLVFTVKEAAAQQQESATTQKAEKEVTRMVASTFKVLRNVTVVLWSAYPVVWLIGSEGAGIVPLNIETLLFMVLDVSAKVGFGLILLRSRAIFGEAEAPEPSAGDGAAATSD"}, "B5": {"name": "BR-Rhodopsin loop 3 chimera, Rhodopsin Insert Y223 to T251 (3B) (other)", "chain": "QAQITGRPEWIWLALGTALMGLGTLYFLVKGMGVSDPDAKKFYAITTLVPAIAFTMYLSMLLGYGLTMVPFGGEQNPIYWARYADWLFTTPLLLLDLALLVDADQGTILALVGADGIMIGTGLVGALTKVYSYRFVWWAISTAAMLYILYVLFFGFTYGQLVFTVKEAAAQQQESATTQKAEKEVTVASTFKVLRNVTVVLWSAYPVVWLIGSEGAGIVPLNIETLLFMVLDVSAKVGFGLILLRSRAIFGEAEAPEPSAGDGAAATSD"}, "B6": {"name": "BR-Rhodopsin loop 3 chimera, Rhodopsin Insert Y223 to R252 (3G) (other)", "chain": "QAQITGRPEWIWLALGTALMGLGTLYFLVKGMGVSDPDAKKFYAITTLVPAIAFTMYLSMLLGYGLTMVPFGGEQNPIYWARYADWLFTTPLLLLDLALLVDADQGTILALVGADGIMIGTGLVGALTKVYSYRFVWWAISTAAMLYILYVLFFGFTYGQLVFTVKEAAAQQQESATTQKAEKEVTRVASTFKVLRNVTVVLWSAYPVVWLIGSEGAGIVPLNIETLLFMVLDVSAKVGFGLILLRSRAIFGEAEAPEPSAGDGAAATSD"}, "B7": {"name": "BR-Rhodopsin loop 3 chimera, Rhodopsin Insert G224 to M253 (3E) (other)", "chain": "QAQITGRPEWIWLALGTALMGLGTLYFLVKGMGVSDPDAKKFYAITTLVPAIAFTMYLSMLLGYGLTMVPFGGEQNPIYWARYADWLFTTPLLLLDLALLVDADQGTILALVGADGIMIGTGLVGALTKVYSYRFVWWAISTAAMLYILYVLFFGFTGQLVFTVKEAAAQQQESATTQKAEKEVTRMVASTFKVLRNVTVVLWSAYPVVWLIGSEGAGIVPLNIETLLFMVLDVSAKVGFGLILLRSRAIFGEAEAPEPSAGDGAAATSD"}},
  "assay_in_all_cases": "cell-based or functional assay",
  "key": {"holotransducin [1]": {"molecular_target": "holotransducin"}, "holotransducin [2]": {"molecular_target": "holotransducin", "remark": "listed apart in the source"}, "holotransducin [3]": {"molecular_target": "holotransducin", "remark": "listed apart in the source"}},
  "data": [
    {"binder": "B1", "values": [
      {"measurement": "Specific counts (Lattice Form) (at 30 min), 35S-GTPyS uptake", "setting": "holotransducin [1]", "result": 118000, "unit": "specific counts"}
    ]},
    {"binder": "B2", "values": [
      {"measurement": "Activation (x100%) Over Basal Exchange", "setting": "holotransducin [2]", "result": "1 x100%"},
      {"measurement": "Specific counts (Lattice Form), 10 Minutes, GTPyS uptake", "setting": "holotransducin [2]", "result": 53400, "unit": "specific counts"}
    ]},
    {"binder": "B3", "values": [
      {"measurement": "Activation (Fold increase) over BR", "setting": "holotransducin [1]", "result": 1.6, "unit": "fold"},
      {"measurement": "Activation (Fold increase) over Basal", "setting": "holotransducin [1]", "result": 1.17, "unit": "fold"},
      {"measurement": "Specific counts (Lattice Form) (at 30 min), 35S-GTPyS uptake", "setting": "holotransducin [1]", "result": 193000, "unit": "specific counts"}
    ]},
    {"binder": "B4", "values": [
      {"measurement": "Activation (x100%) Over Basal Exchange", "setting": "holotransducin [2]", "result": "1.44 x100%"},
      {"measurement": "Activation (Fold increase) over BR", "setting": "holotransducin [1]", "result": 2.22, "unit": "fold"},
      {"measurement": "Activation (Fold increase) over Basal", "setting": "holotransducin [1]", "result": 1.6, "unit": "fold"},
      {"measurement": "Specific counts (Lattice Form) (at 30 min), 35S-GTPyS uptake", "setting": "holotransducin [1]", "result": 262000, "unit": "specific counts"},
      {"measurement": "Activation (3C) over Basal Exchange, 100 uM GDP", "setting": "holotransducin [3]", "result": 1.67, "unit": "fold"}
    ]},
    {"binder": "B5", "values": [
      {"measurement": "Activation (x100%) Over Basal Exchange", "setting": "holotransducin [2]", "result": "1.17 x100%"},
      {"measurement": "Specific counts (Lattice Form), 10 Minutes, GTPyS uptake", "setting": "holotransducin [2]", "result": 62800, "unit": "specific counts"}
    ]},
    {"binder": "B6", "values": [
      {"measurement": "Activation (Fold increase) over BR", "setting": "holotransducin [1]", "result": 1.55, "unit": "fold"},
      {"measurement": "Activation (Fold increase) over Basal", "setting": "holotransducin [1]", "result": 1.1, "unit": "fold"},
      {"measurement": "Specific counts (Lattice Form) (at 30 min), 35S-GTPyS uptake", "setting": "holotransducin [1]", "result": 183000, "unit": "specific counts"}
    ]},
    {"binder": "B7", "values": [
      {"measurement": "Activation (x100%) Over Basal Exchange", "setting": "holotransducin [2]", "result": "1.46 x100%"},
      {"measurement": "Specific counts (Lattice Form), 10 Minutes, GTPyS uptake", "setting": "holotransducin [2]", "result": 78400, "unit": "specific counts"}
    ]}
  ]
}
